Experimental data as given in paper PMC5948571, “Detection of Metallothionein in Javanese Medaka (Oryzias javanicus), Using a scFv-Immobilized Protein Chip” (Sensors (Basel, Switzerland), 2018).

Molecular target: T1, BSA (Bos taurus, UniProt P02769)
T1 construct: BSA (serum albumin), used as negative control protein; also called control protein
Assay: SPR; scFv-Cys3 (50 µg/mL) immobilised directly on a gold chip by thiol-gold, blocked with PEG-thiol; OjaMT (5-30 µg/mL) or BSA (30 µg/mL) flowed at 10 µL/min for 10 min, PBS wash; PBS, room temperature; portable MiCo SPR nano
Settings: both partners purified

T1 sequence (P02769 25-607): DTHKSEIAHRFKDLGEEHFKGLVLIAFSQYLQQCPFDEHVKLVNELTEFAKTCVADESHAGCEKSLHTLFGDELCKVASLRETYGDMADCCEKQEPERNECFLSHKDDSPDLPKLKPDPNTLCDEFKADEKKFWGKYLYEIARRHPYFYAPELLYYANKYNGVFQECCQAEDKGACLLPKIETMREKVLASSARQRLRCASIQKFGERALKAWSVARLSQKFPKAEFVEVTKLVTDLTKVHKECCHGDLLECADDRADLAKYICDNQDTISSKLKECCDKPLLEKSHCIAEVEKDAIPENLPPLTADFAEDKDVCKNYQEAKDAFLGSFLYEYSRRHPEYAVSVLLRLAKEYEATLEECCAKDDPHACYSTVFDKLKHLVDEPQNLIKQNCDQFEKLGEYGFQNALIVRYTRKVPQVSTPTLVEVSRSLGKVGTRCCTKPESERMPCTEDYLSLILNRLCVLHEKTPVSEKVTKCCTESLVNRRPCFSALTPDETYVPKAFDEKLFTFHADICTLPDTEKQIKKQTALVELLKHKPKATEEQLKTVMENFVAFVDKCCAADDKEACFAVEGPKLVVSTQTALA

B1: Cys3-tagged anti-OjaMT single-chain fragment of variable region (scFv-Cys3) (scFv, V domains shown)
VH: EVQLQQSGAELVKPGASVKLSCKASGYTFTSYSMHWVKQRPGQGLEWIGEINPSNGRTNYNEKFKSKATLTVDKSSSTAYMQVSSLTSEDSAVYYCARRSSYWYFDVWGAGTTVTVSS
VL: DVLMTQTPASQSASLGESVTITCLASQTIGTWLAWYQQKPGKSPQLLIYAATSLADGVPSRFSGSGSGTKFSFKISSLQAEDFVSYYCQQLCNPPYTFGGRHQAGNQ
notes: VH of the anti-OjaMT hybridoma, 119 amino acids; (GGGGS)3 GS-linker, 15 amino acids; VL of the anti-OjaMT hybridoma, 107 amino acids; VH-linker-VL cloned NdeI/HindIII in pET-28a(+) (pJDH033); a GS-linker-Cys3 fragment was put into the HindIII/XhoI sites (pJDH043); also called anti-OjaMT scFv; recombinant scFv; not shown: GS-linker-Cys3, C-terminal, kept
binding result: no binding (tested: 30 μg/mL)
